Results on one molecule are retold here after patent US20220145295A1, “ENZYMATIC RNA SYNTHESIS” (President and Fellows of Harvard College, priority 2018, published 2022).

This assay deals with poly dT-15-mer initiator oligonucleotide. The assay can be described thus: Initial activity screen of polymerase μ R387K with divalent cations (rate of ssDNA generation). Conditions: 200 μM dNTP, 37° C. Format: biochemical. As for the experimental part: FIGS. 3A to 3C. […] Denaturing gel electrophoresis analysis of dATP incorporation (FIG. 3B) and rATP incorporation (FIG. 3C) at nucleotide concentrations of 200-50 μM and 5.0-0.62 mM for dATP and rATP, respectively. These reactions were supplemented with 0.25 mM Mn^2+ and Mg^2+. The control reaction consisted of all reaction components except nucleotide. For all reactions, the initiator oligonucleotide was a HPLC-purified poly dT-15-mer.
Human polymerase μ R387K was expressed and purified as described in the materials and methods. Because it was unknown under which reaction conditions polymerase μ R387K functioned optimally, several reaction parameters were initially evaluated. […] Thus, polymerase p R387K, a confirmed DNA/RNA-directed polymerase, is useful for controlled enzymatic RNA synthesis.
Expressed proteins with terminal transferase activity were screened by determining the rate of RNA generation in terms of total RNA concentration and the length/distribution of RNA produced by the protein after incubation with natural rNTPs. […] The length of the RNA produced in these reactions was determined by comparing products to a 100-nt ssDNA ladder (Simplex Biosciences) using a 15% TBE-Urea denaturing gel (Thermo EC6885) following the manufacturer's protocol. […]

B1: polymerase μ R387K: Human polymerase μ with point mutation R387K, expressed and purified; SEQ ID NO: 1 (protein, listed as Homo sapiens)
chain: MLPKRRRARVGSPSGDAASSTPPSTRFPGVAIYLVEPRMGRSRRAFLTGLARSKGFRVLDACSSEATHVVMEETSAEEAVSWQERRMAAAPPGCTPPALLDISWLTESLGAGQPVPVECRHRLEVAGPRKGPLSPAWMPAYACQRPTPLTHHNTGLSEALEILAEAAGFEGSEGRLLTFCRAASVLKALPSPVTTLSQLQGLPHFGEHSSRVVQELLEHGVCEEVERVRRSERYQTMKLFTQIFGVGVKTADRWYREGLRTLDDLREQPQKLTQQQKAGLQHHQDLSTPVLRSDVDALQQVVEEAVGQALPGATVTLTGGFRRGKLQGHDVDFLITHPKEGQEAGLLPRVMCRLQDQGLILYHQHQHSCCESPTRLAQQSHMDAFEKSFCIFRLPQPPGAAVGGSTRPCPSWKAVRVDLVVAPVSQFPFALLGWTGSKLFQRELRRFSRKEKGLWLNSHGLFDPEQKTFFQAASEEDIFRHLGLEYLPPEQRNA
In the case of B1, the “rate of ssDNA generation” value by setting is: (0.25 mM Co^2+, worst rate) approximately 100 RFU/minute; (combination of Mn^2+ and Mg^2+ at 0.25 mM, highest rate) approximately 650 RFU/minute.
